Data from paper PMC10173337.
Values joined by “and” are separate entries in the source; they are usually repeats but may differ in a detail not shown here. Equal entries are not always repeated.

Biological target: eight amino acid-mutated FcγRIIIa without glycosylation (ligand of the TSKgel FcR-IIIA-NPR column) (UniProt P08637)
Assay: FcγRIIIa affinity column chromatography

Sequence of UniProt P08637 (P08637 17-208, change not shown): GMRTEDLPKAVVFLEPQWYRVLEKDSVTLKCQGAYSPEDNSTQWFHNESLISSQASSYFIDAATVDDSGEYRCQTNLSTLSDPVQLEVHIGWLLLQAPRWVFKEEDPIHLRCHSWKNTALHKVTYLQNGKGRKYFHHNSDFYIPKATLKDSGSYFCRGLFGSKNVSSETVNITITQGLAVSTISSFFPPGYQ

Row | Substance | retention time
1 | full-length rituximab 1 (antibody) | 10.2 min and 12.6 min and 15 min
2 | full-length mogamulizumab 4 (antibody) | 12.1 min and 14.8 min and 17.2 min
3 | Fc fragment of rituximab after papain digestion 5 (domain or fragment) | 11.2 min and 13.6 min and 16 min
4 | full-length trastuzumab 2 (antibody) | 9.8 min and 12.2 min and 14.7 min
5 | full-length rituximab with trisaccharide 7 (antibody) | 4.3 min
6 | Fc fragment of rituximab with full-length glycan 10 (domain or fragment) | 16.4 min
7 | full-length cetuximab 3 (antibody) | 10.7 min and 13.3 min and 15.1 min
8 | full-length rituximab with full-length glycan 8 (antibody) | 15.6 min
